Experiment [1] concerns peroxisomes in Xenopus egg extract. The experiment can be described thus: Peroxisomal protein import assay in Xenopus egg extract. To be noted: GFP fusion, 1 h. In kind it is biochemical, Xenopus laevis. On the procedure:
Import reactions were performed exactly as described in a previously published protocol. Briefly, extract was mixed with 500 nM of the indicated cargo and 100 nM of the indicated receptor variants with or without 100 nM PEX7, and incubated at 24 °C. Where stated, endogenous PEX5 was first depleted from the extract using agarose beads covalently conjugated to the high-affinity PEX5-binding domain from PEX14. Recombinant proteins were diluted in XBHS buffer (40 mM HEPES·KOH pH 7.7 at RT, 100 mM KCl, 1 mM MgCl2, 0.1 mM CaCl2 and 250 mM sucrose) before being added to the reactions. For imaging, an aliquot of each reaction was sandwiched between two 22 × 22 mm no. […] The samples were illuminated by an 80-mW solid-state 488-nm laser through a Di01-T405/488/568/647 dichroic (Semrock), and fluorescence was collected through a Nikon ×100 1.45 NA Plan Apo Lambda oil-immersion objective and a green-emission ET525/50 m (525 ± 25 nm) single-band bandpass filter (Chroma). […]
To calculate import rates in Xenopus egg extract, images were first thresholded to identify peroxisomes that were within the focal plane. A circular area with a diameter of 3 pixels was then centred on each local maximum and the mean fluorescence within this area was measured; the average fluorescence in the cytosol was then subtracted from the measured values. […]

The subject of experiment [2] is YG hydrogel (wild-type YG-domain polypeptide of PEX13). The experiment is described as follows: YG hydrogel permeation assay, wild-type hydrogel (Fig. 2, Fig. 3g, Extended Data Fig. 9d). Particulars: wild-type hydrogel. Here is the method:
A solution of the purified wild-type YG-domain polypeptide (or the variant lacking the KPWE motif) was concentrated to 2 mM in 50 mM HEPES·NaOH pH 7.8 at RT, 2 M urea and 2 mM TCEP. Aliquots of 2 µl were then spotted on the bottom of multiple wells of a 96-well glass-bottomed plate (Cellvis, P96-1.5H-N), which was then sealed with a gas-impermeable AlumaSeal II film (Hampton Research, HR8-069) to prevent desiccation and incubated at RT for 24 h. Before each assay, the resulting gels were equilibrated overnight at RT in a 100-fold excess of Assay Buffer (25 mM HEPES·NaOH pH 7.8 at RT, 150 mM NaCl and 1 mM TCEP). A 0.5 µM solution of fluorescently labelled protein in Assay Buffer was then added to the samples, with or without additional components at the concentrations indicated in the text, and incubated at RT. Gels were imaged at the times indicated in the text using a Nikon A1R point-scanning confocal system consisting of an inverted Nikon Eclipse Ti microscope and a Nikon ×20 0.75 NA Plan Apo air objective. The objective was centred on the gel edge and focus was maintained 5 µm above the glass surface using the Nikon Perfect Focus System. Fluorescence was excited through a 405/488/561/647 quad-band dichroic (Chroma), using a 488-nm solid-state laser (Coherent) and a galvano scanner. A 50-nm emission band was collected on a gallium arsenide phosphide detector, using an ET525/50m (525 ± 25 nm) single-band bandpass filter (Chroma) and a pinhole dilated to 0.9 Airy units. Images were acquired using the Nikon NIS-Elements software with a pixel size of 1 µm and a 12-bit digitizer. Imaging parameters were configured to maximize the SNR while avoiding saturation. All samples intended to be compared were imaged using identical acquisition settings.
(§1) For the YG hydrogel permeation assay, images were first oriented such that each gel edge faced the same direction. Fluorescence profiles across the buffer–gel interface were then generated by centering a 60 × 300 µm rectangular area on the gel edge and then measuring the mean fluorescence at each position within this selection. To express the resulting values in terms of fold enrichment, the fluorescence at each position along the selection was normalized to the average fluorescence in the buffer and plotted in terms of the distance from the gel edge.
To calculate permeation rates through the YG hydrogel, a 60 × 300 µm rectangular area was first centred on the gel edge. The resulting region was then thresholded to demarcate the permeation zone (that is, the distance traversed by the fluorescent species) from the buffer and non-permeated part of the gel. The width of the area above the threshold was then measured and plotted as a function of time. A linear fit to the data yielded the permeation rate.

In experiment [3] the test system is YG hydrogel (∆KPWE YG-domain polypeptide of PEX13). The experiment is described as follows: YG hydrogel permeation assay, hydrogel lacking the KPWE motif (Fig. 3g). To be noted: 1 h. Here is the method:
A solution of the purified wild-type YG-domain polypeptide (or the variant lacking the KPWE motif) was concentrated to 2 mM in 50 mM HEPES·NaOH pH 7.8 at RT, 2 M urea and 2 mM TCEP. Aliquots of 2 µl were then spotted on the bottom of multiple wells of a 96-well glass-bottomed plate (Cellvis, P96-1.5H-N), which was then sealed with a gas-impermeable AlumaSeal II film (Hampton Research, HR8-069) to prevent desiccation and incubated at RT for 24 h. Before each assay, the resulting gels were equilibrated overnight at RT in a 100-fold excess of Assay Buffer (25 mM HEPES·NaOH pH 7.8 at RT, 150 mM NaCl and 1 mM TCEP). […] Fluorescence was excited through a 405/488/561/647 quad-band dichroic (Chroma), using a 488-nm solid-state laser (Coherent) and a galvano scanner. […]
as §1

B1: PEX7–GFP: PEX7 fused at the C terminus to a linker (SGSG) followed by mEGFP (protein)
chain: MLRYHMQGFSGYGVQYSPFFDNRLAVAAGSNFGLVGNGKLFILEIDRSGRIVEVNSFLTQDCLFDLAWNESHENQVLVAQGDGTLRLFDTTFKEFPIAIFKEHEREVFSCNWNLVNRQNFLSSSWDGSIKIWSPLRKQSLMTLTPRPLEITKMVDPLNAIILKKKSFTGISKNRNCVYQAQFSPHDQNLVLSCSGNSYASLFDIRLPSGKNQNNFLVHSGLEALTCDFNKYRPYVVATGGVDNAIRIWDIRMLNKNESATIKRTVPGQLHNSSCINEIPNAHGLAIRKVTWSPHHSNILMSASYDMTCRIWRDLSNDGAKETYKTNSTDATKGSIFNFTQHSEFVFGADWSLWGKPGYVASTAWDGNLFVWNGLG
modifications: left off: GST, N-terminal, cleaved | GFP, C-terminal, kept
Turning to B1, the “Import into peroxisomes in Xenopus egg extract” value in experiment [1] was “enters peroxisomes only when it is assembled into a complex with PEX5 and cargo”. The “Entry into YG hydrogel” value in experiment [2] is reported as “readily entered the phase”.

B2: PEX7: full-length PEX7 from S. cerevisiae (GenBank accession no. NP_010426.1) (protein)
chain: B1 chain
modifications: left off: GST, N-terminal, cleaved
Turning to B2, the “Entry into YG hydrogel lacking the KPWE motif” value in experiment [3] was “some entry of PEX7 into YG hydrogels was observed in the absence of the KPWE motif”.

These data come from publication PMC12173945, “Import mechanism of peroxisomal proteins with an N-terminal signal sequence” (Nature Cell Biology, 2025).
